# Tests used:
# [1] = molecular target: citrullinated histone H3 (CitH3) peptide (human); experiment: sandwich ELISA, Ab coated 1 ug/mL, CitH3 at 0 pg/mL (blank)
# [2] = molecular target: citrullinated histone H3 (CitH3) peptide (human); experiment: sandwich ELISA, Ab coated 1 ug/mL, CitH3 at 50 pg/mL
# [3] = molecular target: citrullinated histone H3 (CitH3) peptide (human); experiment: sandwich ELISA, Ab coated 1 ug/mL, CitH3 at 1000 pg/mL
# [4] = molecular target: citrullinated histone H3 (CitH3) peptide (human); experiment: sandwich ELISA, Ab coated 1 ug/mL, CitH3 at 20000 pg/mL
binder,measurement,setting,value
"Y1128-VH1/VL1 (antibody, V domains shown) VH: EVQLVQSGAEVKKPGATVKISCKASGFNIKDYYMHWMQQRPGKGLEWIGWIDPENGNTIYDPKFQGRVTITSDTSTDTAYLELSSLRSEDTAVYYCAPFGNYVWFAYWGQGTLVTVSS VL: DVVMTQSPLSLPVTLGQPASISCRSSQSIVHSNGITYLEWFQQRPGQSPRLLIYKVSNRFSGVPDRFSGSGSGTDFTLKISRVEAEDVGVYYCFQGSHVPFTFGQGTKLEIKR",ELISA signal (raw data),[1],2780
same,ELISA signal (raw data),[2],2950
same,ELISA signal (raw data),[3],2910
same,ELISA signal (raw data),[4],3700
